According to patent US20250277057A1 (OKLAHOMA MEDICAL RESEARCH FOUNDATION, published 2025):
Changes are numbered by the printed parent chain.

B1: HAPC-14-6 (antibody, V domains shown)
VH: EVQLVESGGGLVQPGGSLRLSCAASGFTFSFYYLNWVRQAPGKGLEWVGDIRLKKNNYEKHYAESVKGRFTISRDDSKSITYLQMNSLRAEDTAVYYCAREGDYFDYWGQGTTVTVSS
VL: DIQLTQSPSSLSASVGDRVTITCRASESVDSFGATFMHWYQQKPGKAPKLLIYLASRLGSGVPSRFSGSGSGTDFTLTISSLQPEDFATYYCQQNNEDPYTFGQGTKLEIK
notes: Whole IgG, backbone hIgG1; also called HPAC 14-6; No. 6
B2: Humanized antibody 13 (HAPC-13) (antibody, V domains shown)
VH: B1 VH with F31N, K55S
VL: B1 VL with L4M, R57N, G59E
notes: also called Humab001-13; NO; 13 antibody
B3: Humanized antibody 16 (HAPC-16) (antibody, V domains shown)
VH: B1 VH with F31N, K55S
VL: B1 VL with D1N, Q3V, A47P, R57N, G59E, G72R
notes: also called Humab001-16; NO; 16 antibody
B4: HAPC-14-3 (antibody, V domains shown)
VH: B1 VH
VL: B1 VL with Q93V
notes: Whole IgG, backbone hIgG1; also called HPAC 14-3; No. 3

Assays:
[1] = target: T1, human activated protein C (human, UniProt P04070 43-197; P04070 212-461); experiment: Octet BLI
T1 construct: In the plasma assays aPC is generated in human plasma with Protac; also called aPC; haPC
Protocol: (§1) Assay method: Octet analysis was carried out at 25° C. using a Protein A Octet biosensor in 1× Kinetics buffer. During the kinetics assay, the baseline step assay was run in 1× Kinetics buffer for 120 seconds, and then run for 240 seconds after the antibody was loaded to the biosensor. Next, the baseline 2 step assay was run in 1× Kinetics buffer for 120 seconds. […] The 1× Kinetics buffer was used as a blank control to show the natural dissociation of the antibody in the buffer. 10 mM glycine at pH 1.5 was used for the regeneration step. Octet data analysis software was used to calculate binding kinetics, and a 1:1 binding model was used for curve fitting.

[2] = target: T1, human activated protein C; experiment: cell-based or functional assay
[3] = target: T2, human protein C (human, UniProt P04070 43-461); experiment: ELISA on plate-coated HPC, OD450
T2 construct: Zymogen form, coated on ELISA plates; also called hPC; PC
Protocol: (§2) The binding abilities of the anti-aPC monoclonal antibodies to haPC/hPC were assayed by Elisa. […] 1. ELISA plates were coated with haPC/hPC (1 ug/mL in PBS), 100 μL/well, at 4° C. overnight. […] 2. The plates were washed 3 times with PBST (0.1% Tween 20), 200 μL/well. […] 3. The plates were blocked with 2% BSA (PBS solution), 200 μL/well, at room temperature for 1 hour. […] 4. The plates were washed 3 times with PBST (0.1% Tween 20), 200 μL/well. […] 5. The plates were incubated with anti-aPC monoclonal antibody as primary antibody (diluted from 10 μg/mL in 2% BSA), 100 μL/well, at room temperature for 1 hour. […] 6. The plates were washed 3 times with PBST (0.1% Tween 20), 200 μL/well. [0200] 7. The plates were incubated with anti-hIgG-Fc antibody-HRP (diluted 5000-fold in 2% BSA buffer) at room temperature for 1 hour. [0201] 8. The plates were washed 6 times with PBST (0.1% Tween 20), 200 μL/well. [0202] 9. The plates were incubated with a TMB substrate (prepared from solutions A and B at 1:1 (v/v)), 100 μL/well, away from light for 10 minutes. […] 10. The reaction was quenched with HCl (1 M), 100 μL/well, and OD450 was read.

[4] = target: T2, human protein C; experiment: ELISA, plate coated with hPC 1 ug/mL, anti-hIgG-Fc-HRP
Protocol: as §2

[5] = target: T1, human activated protein C; experiment: ELISA, plate coated with haPC 1 ug/mL, anti-hIgG-Fc-HRP
Protocol: as §2

[6] = target: T1, human activated protein C; experiment: Octet BLI, antibody on Protein A sensor, huAPC 3.13-50 nM, 1:1 model, 25 C, pH 7.4
Protocol: as §1
The affinities of the mutant antibodies were assayed at pH 7.4.

[7] = target: T2, human protein C; experiment: ELISA on plate-coated HuPC (1 ug/ml), OD450
[8] = target: T1, human activated protein C; experiment: ELISA on plate-coated APC (1 ug/ml), OD 450; EC50 from the table drawn beside the curves; no unit in the table, axis Ab Conc.(nM)

Binder	fold increase of affinity against the unmutated No. 14 antibody HAPC-14 [1] [fold]	Mean clotting time (s), FIX-deficient plasma, APC-antibody concentration 0.5 ug/ml [2] [s]	Mean clotting time (s), FIX-deficient plasma, APC-antibody concentration 1 ug/ml [2] [s]	Mean clotting time (s), FIX-deficient plasma, APC-antibody concentration 5 ug/ml [2] [s]	Mean clotting time (s), FVIII-deficient plasma, APC-antibody concentration 0.5 ug/ml [2] [s]	Mean clotting time (s), FVIII-deficient plasma, APC-antibody concentration 1 ug/ml [2] [s]	Mean clotting time (s), FVIII-deficient plasma, APC-antibody concentration 5 ug/ml [2] [s]	binding result [3]	Span [4]	EC50 [5] [nM]	Span [5]	Kd [6] [nM]	koff [6] [s⁻¹]	kon [6] [M⁻¹ s⁻¹]	binding result [7]	EC50 [8] [nM]
B1	~100	181	198	180	182	187	162	no binding (tested: 10^2 nM)	~0.0133	0.0821	1.85	3.64	0.00108	297000		
B2		502	402	326	629	546	301								no binding (tested: 100 nM)	0.199
B3															no binding (tested: 100 nM)	0.172
B4	~100	208	200	185	205	188	176	no binding (tested: 10^2 nM)	~0.267	0.0618	1.61	2.67	0.000854	320000		
